In paper PMC12041854, “CARM1/PRMT4 facilitates XPF–ERCC1 heterodimer assembly and maintains nucleotide excision repair activity” (Nucleic Acids Research, 2025):
Changes are numbered by the printed parent chain.

How the values were obtained:
Assay in all cases: pull-down; in vitro translated and purified XPF WT-Myc or R568K-Myc, with or without in vitro methylation by CARM1-FLAG beads (1 mM S-adenosylmethionine, 50 mM Tris-HCl pH 8.0, 10 mM DTT, 3 h at 30°C), then pulled down with GST-ERCC1; western blot
Conditions in all cases: both partners purified
[1] = target: T1, XPF WT-Myc after CARM1-mediated methylation (human, UniProt Q92889 1-916, arginine methylation by CARM1 in vitro; the paper names R568 as the site whose methylation promotes binding to ERCC1)
T1 construct: XPF (xeroderma pigmentosum group F protein), human; also called methylated XPF WT-Myc
T1 sequence: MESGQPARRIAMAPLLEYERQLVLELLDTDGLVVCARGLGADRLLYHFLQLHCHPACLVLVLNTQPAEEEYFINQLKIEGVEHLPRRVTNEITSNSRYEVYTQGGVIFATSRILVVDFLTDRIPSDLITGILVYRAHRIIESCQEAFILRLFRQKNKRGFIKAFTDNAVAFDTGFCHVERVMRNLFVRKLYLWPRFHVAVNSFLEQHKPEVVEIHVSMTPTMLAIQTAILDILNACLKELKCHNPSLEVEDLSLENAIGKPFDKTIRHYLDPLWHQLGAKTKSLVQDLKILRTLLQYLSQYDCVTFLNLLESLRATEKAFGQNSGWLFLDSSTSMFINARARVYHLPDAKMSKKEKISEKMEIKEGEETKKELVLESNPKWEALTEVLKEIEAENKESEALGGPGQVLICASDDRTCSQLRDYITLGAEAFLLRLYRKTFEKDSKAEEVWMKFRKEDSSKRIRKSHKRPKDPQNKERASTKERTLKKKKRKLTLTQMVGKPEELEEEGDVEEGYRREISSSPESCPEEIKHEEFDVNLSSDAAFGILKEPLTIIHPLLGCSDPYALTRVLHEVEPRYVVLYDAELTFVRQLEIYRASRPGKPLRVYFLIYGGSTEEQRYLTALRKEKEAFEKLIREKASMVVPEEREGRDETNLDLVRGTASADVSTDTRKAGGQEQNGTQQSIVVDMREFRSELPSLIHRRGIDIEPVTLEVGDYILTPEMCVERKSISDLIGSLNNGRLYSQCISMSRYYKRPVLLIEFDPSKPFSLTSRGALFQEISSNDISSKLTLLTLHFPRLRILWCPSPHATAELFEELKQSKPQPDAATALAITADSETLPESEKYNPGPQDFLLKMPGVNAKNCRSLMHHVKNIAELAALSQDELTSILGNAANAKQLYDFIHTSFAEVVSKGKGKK

[2] = target: T2, in vitro translated XPF WT-Myc (human, UniProt Q92889 1-916)
T2 construct: XPF (xeroderma pigmentosum group F protein), human; source: in vitro translated (wheat germ cell-free system, pEU-E01-MCS); used as reaction mixture, and purified (Ni-NTA, anti-Myc magnetic beads, Myc peptide elution)
T2 sequence: T1 sequence

[3] = target: T3, XPF R568K-Myc after the in vitro methylation assay with CARM1 (human, UniProt Q92889 1-916, R568K, subjected to the in vitro methylation assay with CARM1; methylated residues not stated)
T3 construct: also called R568K-Myc mutant after methylation assay
T3 sequence: T1 sequence with R568K

[4] = target: T4, in vitro translated XPF R568K-Myc (human, UniProt Q92889 1-916, R568K)
T4 construct: also called RK; source: in vitro translated (wheat germ cell-free system); used as reaction mixture, and purified (Ni-NTA, anti-Myc magnetic beads, Myc peptide elution)
T4 sequence: T1 sequence with R568K

binding result [1]: binds
binding result [2]: binds
binding result [3]: binds
binding result [4]: binds
B1: GST-ERCC1 (natural protein, human)
chain: MDPGKDKEGVPQPSGPPARKKFVIPLDEDEVPPGVAKPLFRSTQSLPTVDTSAQAAPQTYAEYAISQPLEGAGATCPTGSEPLAGETPNQALKPGAKSNSIIVSPRQRGNPVLKFVRNVPWEFGDVIPDYVLGQSTCALFLSLRYHNLHPDYIHGRLQSLGKNFALRVLLVQVDVKDPQQALKELAKMCILADCTLILAWSPEEAGRYLETYKAYEQKPADLLMEKLEQDFVSRVTECLTTVKSVNKTDSQTLLTTFGSLEQLIAASREDLALCPGLGPQKARRLFDVLHEPFLKVP
notes: ERCC1 (excision repair cross-complementation group 1), human; also called E1; excision repair cross-complementation group 1; source: E. coli BL21 (pGEX 4T-3), purified (glutathione beads)
